Laboratory results: patent US11666658B2, “Rifamycin analogs and antibody-drug conjugates thereof” (Regeneron Pharmaceuticals, Inc., priority 2018, dated 2023)

T1: MSR1-mediated DiI-AcLDL uptake in HEK293.Myc.hMSR1 cells (Homo sapiens, UniProt P21757)
T1 construct: expressed in transfected cells; host or cells: HEK293 (lentiviral transduction, hygromycin selection)
T1 sequence (P21757 1-451): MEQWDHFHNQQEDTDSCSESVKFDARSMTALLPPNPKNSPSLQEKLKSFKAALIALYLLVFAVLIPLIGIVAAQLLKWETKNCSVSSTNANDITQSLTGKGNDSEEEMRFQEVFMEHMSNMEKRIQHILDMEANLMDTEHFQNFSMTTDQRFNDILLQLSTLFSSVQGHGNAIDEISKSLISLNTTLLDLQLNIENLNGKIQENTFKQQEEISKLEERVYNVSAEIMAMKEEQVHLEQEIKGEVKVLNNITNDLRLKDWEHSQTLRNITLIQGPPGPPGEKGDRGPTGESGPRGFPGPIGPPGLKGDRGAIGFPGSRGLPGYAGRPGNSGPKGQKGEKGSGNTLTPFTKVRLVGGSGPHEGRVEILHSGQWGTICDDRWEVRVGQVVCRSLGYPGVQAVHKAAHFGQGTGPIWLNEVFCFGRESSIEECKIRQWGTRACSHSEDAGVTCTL

T2: Ac-LDL binding to His9-hMSR1 (Homo sapiens, UniProt P21757)
T2 construct: human MSR1 extracellular domain expressed with a N-terminal nonahistidine tag; purchased R&D Systems 2708-MS
T2 sequence (P21757 77-451 limits assumed): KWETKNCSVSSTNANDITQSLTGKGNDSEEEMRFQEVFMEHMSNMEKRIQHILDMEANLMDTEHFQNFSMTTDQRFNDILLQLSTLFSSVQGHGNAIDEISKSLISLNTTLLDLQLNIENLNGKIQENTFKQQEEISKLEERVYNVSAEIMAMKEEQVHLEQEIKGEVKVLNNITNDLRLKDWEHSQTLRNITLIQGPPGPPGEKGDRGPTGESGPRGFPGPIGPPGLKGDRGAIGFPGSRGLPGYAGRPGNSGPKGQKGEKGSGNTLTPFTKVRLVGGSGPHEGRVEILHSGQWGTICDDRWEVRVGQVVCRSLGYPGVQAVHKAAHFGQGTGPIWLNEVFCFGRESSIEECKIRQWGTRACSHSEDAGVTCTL

T3: Ox-LDL binding to His9-hMSR1 (Homo sapiens, UniProt P21757)
T3 construct: human MSR1 extracellular domain expressed with a N-terminal nonahistidine tag; purchased R&D Systems 2708-MS
T3 sequence (P21757 77-451 limits assumed): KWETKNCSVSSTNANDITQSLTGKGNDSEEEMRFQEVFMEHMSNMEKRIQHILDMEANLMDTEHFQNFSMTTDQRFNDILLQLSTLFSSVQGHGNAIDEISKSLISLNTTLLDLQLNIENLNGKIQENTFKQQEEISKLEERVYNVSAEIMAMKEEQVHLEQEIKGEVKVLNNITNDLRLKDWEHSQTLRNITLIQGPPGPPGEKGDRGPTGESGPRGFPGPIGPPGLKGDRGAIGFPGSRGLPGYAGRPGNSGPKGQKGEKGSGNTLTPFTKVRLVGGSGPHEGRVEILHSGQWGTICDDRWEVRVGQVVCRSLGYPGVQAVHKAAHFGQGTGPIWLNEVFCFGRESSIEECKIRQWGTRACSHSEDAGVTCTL

T4: biot-AGE-BSA binding to His9-hMSR1 (Homo sapiens, UniProt P21757)
T4 construct: human MSR1 extracellular domain expressed with a N-terminal nonahistidine tag; purchased R&D Systems 2708-MS
T4 sequence (P21757 77-451 limits assumed): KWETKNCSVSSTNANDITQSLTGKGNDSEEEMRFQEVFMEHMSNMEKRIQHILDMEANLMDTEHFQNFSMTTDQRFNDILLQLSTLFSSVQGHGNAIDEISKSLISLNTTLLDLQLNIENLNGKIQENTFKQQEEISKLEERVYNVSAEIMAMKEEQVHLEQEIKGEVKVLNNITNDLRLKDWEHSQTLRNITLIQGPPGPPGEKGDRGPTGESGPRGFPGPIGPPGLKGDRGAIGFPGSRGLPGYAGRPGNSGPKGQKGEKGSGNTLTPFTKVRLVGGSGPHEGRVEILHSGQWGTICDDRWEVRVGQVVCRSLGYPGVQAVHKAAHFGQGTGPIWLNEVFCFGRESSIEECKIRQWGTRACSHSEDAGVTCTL


Tests used:
[1] = target: T1, MSR1-mediated DiI-AcLDL uptake in HEK293.Myc.hMSR1 cells; assay: Ligand uptake assay, DiI-AcLDL; format: cell-based; settings: for IC50, Dil-Acetylated LDL / % Inhibition, Dil-Acetylated LDL: 10 μg/mL DiI-AcLDL; for % Inhibition, Dil-Acetylated LDL: maximum inhibition of uptake
Protocol: The resulting cell line, referred to here as “HEK293.Myc.hMSR1”, was selected and maintained in DMEM containing 10% FBS, NEAA, penicillin/streptomycin, L-glutamine, and 100 μg/mL hygromycin.
After 30 minutes, either oxidized or acetylated low-density lipoprotein (LDL) labeled with 1,1′ dioctadecyl-3,3,3′,3′-tetramethylindocarbocyanine perchlorate (referred to as “DiI-OxLDL” or “DiI-AcLDL,” respectively) was added to the cells at a constant concentration of 10 μg/mL. […] Results were analyzed using nonlinear regression (4-parameter logistics) with the Prism 7 program to obtain EC50 and IC50 values. The percentage of inhibition was calculated with the Relative Fluorescent Unit (RFU) values by using the following equation: […]
In the equation, “RFUBaseline” is the fluorescence value from the cells treated with 10 μg/mL ligand without antibodies, “RFUInhibition” is the minimum fluorescence value with for a particular antibody with 10 μg/mL ligand, and “RFUBackground” is the fluorescence value from cells without any ligand or antibodies.

[2] = target: T2, Ac-LDL binding to His9-hMSR1; assay: Competition sandwich ELISA, Ac-LDL; settings: anti-MSR1 antibody 100 nM, 50 pM Ac-LDL
Protocol: (§1) The ability of anti-MSR1 antibodies disclosed herein to block the binding of various ligands to human MSR1 was measured using three competition sandwich ELISA assays. The ligands used in the assays were: (1) acetylated LDL (Ac-LDL), (2) oxidized LDL (Ox-LDL), and (3) advanced glycation end-products of bovine serum albumin (AGE-BSA).
(§2) Anti-MSR1 antibodies or isotype control antibodies were serially diluted as appropriate for each tested ligand and added in duplicate for each serial dilution set to microtiter plates coated with His9-hMSR1. Buffer alone was also added to wells on each coat. […] This assay was conducted in four different assay runs.
(§3) Data analysis was performed using a sigmoidal dose-response model within Prism™ software (GraphPad). Percent blockade at maximum concentration of the antibody tested in each assay was calculated as an indicator of the ability of the antibodies to block the binding of Ac-LDL, Ox-LDL or biot-AGE-BSA to His9-hMSR1 on the plate relative to the baseline of the assay. In the calculation, binding signal of the same concentrations of Ac-LDL, Ox-LDL, or biot-AGE-BSA used for the assays in the absence of antibody was referenced as 100% binding or 0% blocking, while the baseline of the assay, defined as binding signal of the sample of buffer without MSR1 ligands or antibody, was referenced as 0% binding or 100% blocking. The maximum percent blockade at the highest concentration of antibody tested in each assay are reported for all antibodies.

[3] = target: T3, Ox-LDL binding to His9-hMSR1; assay: Competition sandwich ELISA, Ox-LDL; settings: anti-MSR1 antibody 500 nM, Ox-LDL 10 nM
Protocol: as §1, §2, §3

[4] = target: T4, biot-AGE-BSA binding to His9-hMSR1; assay: Competition sandwich ELISA, biot-AGE-BSA; settings: anti-MSR1 antibody 300 nM, 400 pM biot-AGE-BSA
Protocol: as §1
For the assay, recombinant monomeric human MSR1 protein comprised of a portion of the human MSR1 extracellular domain expressed with a N-terminal 9-Histidine tag (SEQ ID NO: 688) (His9-hMSR1; R&D Systems, Cat #2708-MS) was coated at a concentration of […] in PBS on a 96-well microtiter plate overnight at 4° C. for use in competition ELISA assays with Ac-LDL, Ox-LDL, or biotinylated-AGE-BSA (“biot-AGE-BSA”). […] Anti-MSR1 antibodies or isotype control antibodies were serially diluted as appropriate for each tested ligand and added in duplicate for each serial dilution set to microtiter plates coated with His9-hMSR1. Buffer alone was also added to wells on each coat. After 1 hour incubation at room temperature, without wash, a final constant concentration of 50 pM Ac-LDL (Life Technologies/ThermoFisher Scientific, Cat #L-35354), 5 nM or 10 nM Ox-LDL (Alfa Aesar, Cat #J65591), or 400 pM biot-AGE-BSA (R&D Systems, Cat #BT4127) were added to plates with His9-hMSR1, and the plates were incubated for an additional 1 hour at room temperature. (Concentrations of Ac-LDL, Ox-LDL and biot-AGE-BSA for antibody inhibition assays were selected from the approximate midway point within the linear portion of individual binding curves of Ac-LDL, Ox-LDL or biot-AGE-BSA to plate-coated His9-hMSR1.) Wells were washed, and plate-bound Ac-LDL or Ox-LDL were detected with anti-LDL rabbit antibody (Alfa Aesar, Cat #J64398) in combination with anti-rabbit IgG (H+L) specific donkey polyclonal antibodies conjugated with horseradish peroxidase (HRP) (JacksonImmunoResearch, Cat #711-035-152) and biot-AGE-BSA was detected with a streptavidin-HRP (ThermoFisher Scientific, Cat #N200). Plates were developed using TMB substrate solution (BD Biosciences, Cat #51-2606KC & Cat #51-2607KC) according to manufacturer's recommendation and absorbance at 450 nm was measured on a Victor™ Multilabel Plate Reader (PerkinElmer™). This assay was conducted in four different assay runs.
as §3, with “antibodies. Negative percent blockade numbers reflected higher MSR1 ligands binding to plate coated His9-hMSR1 in the presence of antibodies.” for “antibodies.”

Row | Molecule | inhibition of DiI-AcLDL uptake (in words) [1] | IC50, Dil-Acetylated LDL [1] | % Inhibition, Dil-Acetylated LDL [1] | % Blocking of Ac-LDL binding to His9-hMSR1 [2] [%] | % Blocking of Ox-LDL binding to His9-hMSR1 [3] [%] | % Blocking of biot-AGE-BSA binding to His9-hMSR1 [4] [%]
1 | H1H27734P-N297Q: one of "Twelve anti-MSR1 antibodies" that "bound to parental HEK293 cells"; human IgG1 Fc with N297Q mutation (antibody, V domains shown) VH: EVQLVESRGGLVQPGGSLRLSCAASGFTFSSYAMSWVRQAPGKGLEWVSAISGSGGSTFYADSVKGRFTISRDNSKNTVYLQMNSLRAEDTAVYYCAKALVLRFLEWLGDYWGQGTLVTVSS VL: DIQMTQSPSTLSASVGDRVTITCRASQSISSWLAWFQQKPGKAPKLLIYKASSLESGVPSRFSGSGSGTEFTLTISSLQPDDFATYYCQQYKSYWTFGQGTKVEIKR | no inhibition of DiI-AcLDL uptake | no inhibition | no inhibition |  |  | 
2 | H2aM21229N: one of "Twelve anti-MSR1 antibodies"; "an 'H2aM' antibody has a mouse IgG2a Fc" (antibody, V domains shown) VH: EVQLVESGGGLVKPGGSLRLSCAASGFTFSRYSMNWVRQAPGKGLEWVSSISSSSSYIYYGDTVKGRFTISRDNAKKSLYLQMNSLRAEDTAVYYCVRDRGQLVLYFDYWGQGTLVTVSS VL: DIQMTQSPASLSTSIRDRVTITCRASLSISSFLNWFQQRPGKAPKLLIYVASNLQSGVPSRFSDSGSGTDFTLTISSLQPEDFATYYCQQNYSTPPITFGQGTRLEIK | no inhibition of DiI-AcLDL uptake | no inhibition | no inhibition |  |  | 
3 | H1H27739P-N297Q: anti-MSR1 antibody; "antibodies H1H27739P-N297Q and H1H27734P-N297Q showed no inhibition of DiI-AcLDL uptake" (antibody, V domains shown) VH: EVQLVESGGGLVQPGGSLRLSCTASGFTFSSYAMSWVRQAPGKGLEWVSAISGTGSSTYFTDSVKGRFAISRDNSKNTLYLQMNSLRAEDTAVYYCAKDGEWLSTVTLFDYWGQGTLVTVSS VL: EIVMTQSPATLSVSPGERATLSCRASQSVSSNLAWYQQKPGQAPRLLIYGASTRATGIPARFSGSGSGTDFTLTISSLQSEDFALYYCQQYFIWPPHPTFGPGTKVDIKR | no inhibition of DiI-AcLDL uptake | no inhibition | no inhibition |  |  | 
4 | H1H21227N-N297D: "The 21227N antibody was also produced as a third version with a N297D mutation" (antibody, V domains shown) VH: QVQLVQSGAEVKKPGASVKVSCKVSGYTLTELSIHWVRQVPGKGLEWMGGFDPEEGETIFAQEFRDRVTLTEDTSPDTAYMELSSLKSEDAAVYYCTTPRYCNNGICYDYWGQGTLVTVSS VL: DIQMTQSPSSLSASVGDRVTITCRASQSISNYLNWYQQKPGKAPKLLIYTASSLQSGVPSRFSGSGSGTDFTLTISSLQTEDFATYYCQQSYSNFPITFGQGTRLEIKR |  |  |  | 101 | 99 | 97
5 | H1H21231N-N297Q: modified version of "21231N (H1H21231N-N297Q) anti-MSR1 antibodies" with "a N297Q single point mutation" (antibody, V domains shown) VH: EVQLVESGGGLVQPGGSLRLSCAASGFTFSDHYMDWVRQAPGKGLEWVGRTRNKANSHTTEYTASVTGRFTISRDDSRNSLYLQMNSLKTEDTAVYYCVRAGIIGTLFDYWGQGTLVTVSS VL: DIQMTQFPSSLSASVGDRVTITCRASQSISSFLNWFQQKPGKAPKFLIYAASSLQSGVPSRFSGSGSGTDFTLTISSLQPEDFATYYCQQSYSSPPITFGQGTRLEIKR |  |  |  | −60 | 26 | −50
